Laboratory results reported in patent US20250152663A1, “COMPOSITION FOR PREVENTION OR TREATMENT OF DRY EYE DISEASE COMPRISING HAPLN1” (HAPLNSCIENCE INC., priority 2021, published 2025).

Columns and labels:
mouse dry eye model = experiment: Tear volume assay (Schirmer's test strip), low-humidity+scopolamine-induced dry eye disease model; format: in vivo, C57BL/6
Method: Corneal fluorescein score assay and tear volume assay were respectively performed on eyeballs of mice treated with the compositions of Preparation Examples 1, 2, and 3 prepared in Example 7 above by using a low-humidity+scopolamine-induced dry eye disease (DED) model.
While the test animals were raised in a desiccating stress chamber with a relative humidity of 30% or less, scopolamine hydrobromide (S0929, Sigma-aldrich) prepared in a concentration of 2.5 mg/mL in saline (0.9% normal saline, JW Pharmaceuticals Corp.) was subcutaneously injected thereinto four times a day (QID: 09:30 AM, 12:00 PM, 15:00 PM, and 17:30 PM) for 10 days at a dose of 10 mL/kg to induce dry eye disease. The subcutaneous injection was performed at the back while moving positions to minimize damage caused by repeated administration. […]
• (1) General anesthesia of the mice was induced (10 mg/kg xylazine and 100 mg/kg ketamine, intraperitoneal injection). • (2) After 3 hours from administration of scopolamine hydrobromide in the morning (at 9:30 AM), measurement was conducted. • (3) The volume of tear was measured by using a Schirmer's test strip cut to ½ thickness. […] Then, one drop (5 μl) of physiological saline was applied to the eyeballs. • (4) A length of a wet portion of the strip was measured by a ruler. […]

CD45 in lacrimal glands = experiment: CD45 immunofluorescence in lacrimal gland, mouse dry eye model; format: in vivo, C57BL/6; conditions: after 16 days of drug treatment
Method: In this example, expression of CD45 was identified in lacrimal glands in order to identify in vivo anti-inflammatory effect of the HAPLN1 protein-containing composition of the present disclosure. That is, on the 2nd day after 16 days of drug treatment, eyes were enucleated and paraffin blocked. IHC-IF was performed on a section slide, and expression (green) of CD45 was identified by using an Anti-CD45 antibody. FIG. 12B is a graph illustrating quantified expression levels of FIG. 12A.

B1: hyaluronan and proteoglycan link protein 1 (HAPLN1) (protein, listed as Homo sapiens)
chain: MKSLLLLVLISICWADHLSDNYTLDHDRAIHIQAENGPHLLVEAEQAKVFSHRGGNVTLPCKFYRDPTAFGSGIHKIRIKWTKLTSDYLKEVDVFVSMGYHKKTYGGYQGRVFLKGGSDSDASLVITDLTLEDYGRYKCEVIEGLEDDTVVVALDLQGVVFPYFPRLGRYNLNFHEAQQACLDQDAVIASFDQLYDAWRGGLDWCNAGWLSDGSVQYPITKPREPCGGQNTVPGVRNYGFWDKDKSRYDVFCFTSNFNGRFYYLIHPTKLTYDEAVQACLNDGAQIAKVGQIFAAWKILGYDRCDAGWLADGSVRYPISRPRRRCSPTEAAVRFVGFPDKKHKLYGVYCFRAYN
tear volume compared with Cyclosporine A (mouse dry eye model; after 11 days): increased the tear volume far more than Cyclosporine A | tear volume (mouse dry eye model; eye drop 0.5, 5, 50 μg/ml, 5 μL b.i.d., regardless of the concentration, more than Cyclosporine A): consistently increased | expression level of CD45 compared with Cyclosporine A (CD45 in lacrimal glands): reduced the expression level of CD45 more than Cyclosporine A | expression of CD45 in lacrimal glands (CD45 in lacrimal glands): decreased
